Measured values from paper PMC6647829, “Copper–zinc superoxide dismutase (Sod1) activation terminates interaction between its copper chaperone (Ccs) and the cytosolic metal-binding domain of the copper importer Ctr1” (Biometals, 2019).

Legend:
Settings in all cases: both partners purified
[1] = target: T1, Human wild-type copper chaperone for Sod1 (Ccs), His8-tag removed (human, UniProt O14618 1-274); experiment: other fluorescence titration; HI-FI method, fluorescence quenching; 10 nM Alexa-546 Sod1 probe, Zn-bound; apo-Ccs titrated in increasing concentrations; fit in GraphPad Prism
T1 construct: Human wild-type Ccs1, UniProtKB O14618, cloned into pAG8H; Stripped of metals (apo) or Cu(I)-loaded as the experiment says; the methods tell its removal in general; also called Ccs1; WT Ccs; not shown: His8, N-terminal, cleaved
T1 sequence (looked up): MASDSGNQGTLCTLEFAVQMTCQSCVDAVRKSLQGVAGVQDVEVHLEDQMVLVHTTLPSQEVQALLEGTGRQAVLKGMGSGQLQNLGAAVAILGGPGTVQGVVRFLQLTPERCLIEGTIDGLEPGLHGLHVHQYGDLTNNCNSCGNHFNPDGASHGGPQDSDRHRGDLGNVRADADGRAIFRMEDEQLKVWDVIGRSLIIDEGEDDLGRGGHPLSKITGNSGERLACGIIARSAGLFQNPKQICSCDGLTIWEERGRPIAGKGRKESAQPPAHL

[2] = target: T2, Pre-made Cu(I)-Ctr1c·Ccs complex (human, UniProt O14618 1-274); experiment: other fluorescence titration; HI-FI method, fluorescence quenching; 10 nM Alexa-546 Sod1 probe, completely immature (metal-free); Ccs titrated in increasing concentrations; fit in GraphPad Prism
T2 construct: Human wild-type Ccs1, UniProtKB O14618; as m2; C-terminal 13 amino acids of the human Ctr1 Cu(I)-transporter (Ctr1c), UniProtKB O15431; Held together through Cu(I); also called Cu(I)-Ctr1c complexed Ccs; Cu(I)-Ctr1c488·Ccs; source: formed from purified E. coli Ccs and the Cu(I)-loaded synthetic peptide; not shown: His8, N-terminal, cleaved

[3] = target: T1, Human wild-type copper chaperone for …; experiment: as above

B1: H46R/H48Q/C146S Sod1 labelled with Alexa-546-C-maleimide (Sod1 probe) (enzyme)
chain: not shown
modifications: Alexa-546-C-maleimide label (residue not stated)
notes: Human Sod1, UniProtKB P00441, H46R/H48Q/C146S; the two states are told apart by the assay; also called completely immature Sod1; source: gel filtration after labelling
**Q.** With B1 as the binder, how does the Kd [1] read?
**A.** The Kd was 22 ± 6 nM.

**Q.** What about the Kd [2] of the same binder?
**A.** Its Kd is 120 ± 27 nM.

**Q.** What about the Kd [3] of the same binder?
**A.** Its Kd is 89 ± 11 nM.
